From patent publication US20100221257A1 (AstraZeneca / MedImmune, published 2010)
Each block holds one binder with its values, some of them ahead of it.

Key:
[1] = target: T1, human histidine tagged (HIS) IL1RFc fusion protein (human); experiment: KinExA, FAb equilibrated in solution with IL-1R1-Fc; free FAb captured on IL-1R1 beads
T1 construct: Biotinylated or cryptate labelled in some assays; also called human HIS IL1RFc; huIL-1R1-Fc
Method: (§1) Firstly either a monomerised FAb was allowed to come to equilibrium with sIL-1R1-Fc (soluble sIL-1R1-Fc), or the IgG was allowed to come to equilibrium with sIL-1R1 (un-tagged). These equilibrated solutions of the interacting molecules were then analysed using KinExA™. 3200 technology. In brief, for each equilibrated sample, the KinExA™. 3200 instrument automatically packed a fresh column of sIL-1R1 conjugated micro-beads. The sample containing antibody (or FAb fragment), antigen, and Ab/antigen (or FAb/antigen) complex (in Dulbecco's PBS, 1 mg mL⁻¹ bovine serum albumin, 0.02% (w/v) sodium azide) was flowed rapidly (0.25 mL/min) through the column to keep the contact time of the sample with the antigen-beads extremely brief. This rapid contact time ensured that, for high affinity (slowly dissociating) interactions, dissociation of the complex was negligible during this short contact time. Free antibody bound to the IL-1R1-beads. A Cy5™ (cyanine) fluorescently labelled secondary antibody, mouse anti-human IgG (heavy and light chain specific) was then passed through the column. Labelled secondary antibody bound to the antibody bound to the column. A buffer wash removed excess label, leaving fluorescence signal on the bead column directly proportional to the amount of free […] in the original sample. […]

[2] = target: T2, cynomolgus monkey HIS IL1RFc (cynomolgus monkey); experiment: as above
T2 construct: also called Cyno his IL1RFc; CynoIL1-R1-Fc
Method: as §1

[3] = target: T1, human histidine tagged (HIS) IL1RFc …; experiment: HTRF receptor-ligand assay, scFv inhibiting HIS FLAG IL-1β binding to human HIS IL1RFc
Method: (§2) After pre-incubation of the assay plates, 5 μl of 4 nM HIS FLAG IL1 beta was added. This was followed by 5 μl of 20 nM anti-FLAG IgG labelled with XL665 (CIS Bio international 61FG2XLB) and 5 μl of 3.2 nM anti-human Fc IgG labelled with cryptate (CIS Bio International 61HFCKLB). All dilutions were performed in phosphate buffered saline (PBS) containing 0.4 M potassium fluoride and 0.1% BSA (assay buffer).
(§3) Purified scFv from positive clones identified from screening were tested in either of the above receptor-ligand HTRF® assays for inhibition of binding of human HIS FLAG tagged IL1 beta to human HIS IL1RFc. A skilled person could modify these assays to test IgG or other inhibitor formats. A titration of scFv concentrations was used in order to establish the clone potency as measured by IC₅₀ values in the assay. All dilutions were carried out in assay buffer. 5 μl of a titration of purified scFv sample was added to a 384 well low volume assay plate (Costar 3676). This was then followed by addition of 2 nM human HIS IL1RFc (when using in house HIS IL1 beta) or 8 nM HIS IL1RFc (when using Alexis source IL1 beta) to a volume of 20 μl. Assay plates were then sealed and incubated at room temperature in dark for 1 hour. The subsequent addition steps were carried out as exactly as described for crude scFv containing periplasmic extracts.

[4] = target: T3, Human sIL-1R1 (R&D Systems), un-tagged (human, UniProt P14778 18-332, limits assumed); experiment: KinExA, IgG equilibrated in solution with un-tagged sIL-1R1; free IgG captured on IL-1R1 beads
T3 construct: Bought; also called soluble human IL-1R1
T3 sequence (looked up): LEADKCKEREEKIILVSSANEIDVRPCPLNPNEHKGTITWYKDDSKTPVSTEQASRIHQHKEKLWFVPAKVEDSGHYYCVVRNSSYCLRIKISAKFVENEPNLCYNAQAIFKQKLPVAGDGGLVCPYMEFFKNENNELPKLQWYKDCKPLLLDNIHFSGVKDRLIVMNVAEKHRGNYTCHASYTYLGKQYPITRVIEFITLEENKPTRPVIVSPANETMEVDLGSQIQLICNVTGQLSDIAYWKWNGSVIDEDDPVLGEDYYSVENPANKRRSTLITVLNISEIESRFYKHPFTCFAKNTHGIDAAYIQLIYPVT
Method: as §1

[5] = target: T4, human IL-1R1, endogenous on human cells (HeLa cells; whole blood) (human, UniProt P14778 18-569); experiment: cell-based or functional assay
T4 sequence (looked up): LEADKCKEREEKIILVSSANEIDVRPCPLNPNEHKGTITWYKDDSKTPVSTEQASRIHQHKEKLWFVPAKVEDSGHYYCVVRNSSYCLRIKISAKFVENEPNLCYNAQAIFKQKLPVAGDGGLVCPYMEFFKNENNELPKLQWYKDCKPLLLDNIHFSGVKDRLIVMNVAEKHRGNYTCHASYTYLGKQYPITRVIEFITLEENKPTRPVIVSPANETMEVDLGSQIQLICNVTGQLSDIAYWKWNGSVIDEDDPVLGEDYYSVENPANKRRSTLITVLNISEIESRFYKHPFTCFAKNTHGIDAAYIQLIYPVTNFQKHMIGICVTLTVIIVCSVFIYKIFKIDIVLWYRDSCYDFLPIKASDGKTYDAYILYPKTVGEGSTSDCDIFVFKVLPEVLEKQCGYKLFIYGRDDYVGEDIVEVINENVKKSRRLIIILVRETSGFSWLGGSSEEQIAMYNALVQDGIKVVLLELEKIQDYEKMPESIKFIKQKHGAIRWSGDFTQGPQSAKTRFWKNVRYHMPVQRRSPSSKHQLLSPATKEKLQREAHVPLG

[6] = target: T1, human histidine tagged (HIS) IL1RFc …; experiment: HTRF receptor-ligand assay, scFv inhibiting HIS FLAG IL-1β binding to human HIS IL1RFc; incomplete inhibition curve, value estimated; incomplete inhibition curve; IC50 estimated
Method: as §2, §3

T2 sequence (chain, as listed by the source limits assumed): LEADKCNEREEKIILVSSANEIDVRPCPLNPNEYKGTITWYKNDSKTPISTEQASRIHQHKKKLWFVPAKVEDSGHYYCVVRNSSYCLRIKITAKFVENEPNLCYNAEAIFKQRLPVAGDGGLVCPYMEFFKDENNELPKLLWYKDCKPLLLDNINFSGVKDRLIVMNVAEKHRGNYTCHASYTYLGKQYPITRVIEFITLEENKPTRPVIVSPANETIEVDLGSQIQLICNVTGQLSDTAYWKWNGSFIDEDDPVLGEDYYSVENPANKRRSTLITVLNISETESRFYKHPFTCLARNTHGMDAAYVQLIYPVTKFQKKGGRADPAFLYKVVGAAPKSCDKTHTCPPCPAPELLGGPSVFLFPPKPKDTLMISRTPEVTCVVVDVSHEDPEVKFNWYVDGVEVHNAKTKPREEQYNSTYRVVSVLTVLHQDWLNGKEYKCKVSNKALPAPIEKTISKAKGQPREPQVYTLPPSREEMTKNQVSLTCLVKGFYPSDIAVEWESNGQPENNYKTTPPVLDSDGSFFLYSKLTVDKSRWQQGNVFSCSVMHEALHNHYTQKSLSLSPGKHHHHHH

Kd [1]: 0.0025 nM
Kd [2]: 0.0028 nM
B1: Antibody 6 FAb (Fab, V domains shown)
VH: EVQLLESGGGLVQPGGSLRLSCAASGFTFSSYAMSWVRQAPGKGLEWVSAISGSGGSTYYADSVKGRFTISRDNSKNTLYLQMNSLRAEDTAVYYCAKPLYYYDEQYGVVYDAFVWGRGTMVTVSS
VL: QSVLTQPPSVSGAPGQRVTISCTGSSSNIGAGYDVHWYQQLPGTAPKLLIYGDTHRPSGVPDRFSGSKSGTSASLVIAGLQAEDEADYYCQSYDTVRLHHVFGGGTKLTVL
notes: Monomeric FAb made by papain digestion of Antibody 6 IgG1TM; also called anti-IL-1R1FAb; monomerised FAb

IC50 [3]: 22.5 nM
B2: Antibody 4 scFv (scFv, V domains shown)
VH: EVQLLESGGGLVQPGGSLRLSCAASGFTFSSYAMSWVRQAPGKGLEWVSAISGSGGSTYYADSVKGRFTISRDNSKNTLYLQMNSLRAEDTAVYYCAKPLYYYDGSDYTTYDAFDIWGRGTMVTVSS
VL: QSVLTQPPSVSGAPGQRVTISCTGSSSNIGAGYDVHWYQQLPGTAPKLLIYGDTHRPSGVPDRFSGSKSGTSASLVIAGLQAEDEADYYCQSYDTSLSGSLFGGGTKLTVL
notes: Tested as purified scFv; also called KENB026 or KENB061 (parent, not resolved)

Kd [4]: 0.00305 nM
Mean IC50, whole blood assay, IL-1beta induced release of IL-6 [5]: 311000 nM
B3: Antibody 6 IgG1TM (Triple Mutant, 234F, 235E and 331S) (antibody, V domains shown)
VH: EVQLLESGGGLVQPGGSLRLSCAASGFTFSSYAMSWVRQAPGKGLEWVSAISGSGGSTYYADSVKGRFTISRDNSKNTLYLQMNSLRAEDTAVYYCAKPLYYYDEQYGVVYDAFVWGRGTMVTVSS
VL: QSVLTQPPSVSGAPGQRVTISCTGSSSNIGAGYDVHWYQQLPGTAPKLLIYGDTHRPSGVPDRFSGSKSGTSASLVIAGLQAEDEADYYCQSYDTVRLHHVFGGGTKLTVL
notes: IgG1 with Fc triple mutant 234F, 235E, 331S (EU index)

IC50 [6]: ~225 nM
B4: Antibody 1 scFv (scFv, V domains shown)
VH: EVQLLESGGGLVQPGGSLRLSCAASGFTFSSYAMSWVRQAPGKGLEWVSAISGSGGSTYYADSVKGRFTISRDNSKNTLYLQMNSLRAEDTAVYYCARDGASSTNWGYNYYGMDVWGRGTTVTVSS
VL: QAVLTQPSSASGTPGQRVTISCSGSSSNIGSNYVFWYQQFPGTAPQLLVKWNNQRPSGVPDRFSGSKSGTSASLAISGLRSEDEADYYCAAWDDSLSGLVFGGGTKLTVL
notes: as for B2
